Experimental findings from paper PMC6486636, “LARP4A recognizes polyA RNA via a novel binding mechanism mediated by disordered regions and involving the PAM2w motif, revealing interplay between PABP, LARP4A and mRNA” (Nucleic Acids Research, 2019) are described below.

Holding throughout (details): both partners purified
Test [1] has as its target T1, LARP4A (1-287), N-terminal domain (human, UniProt Q71RC2 1-287).
T1 construct: LARP4A (LARP4), human, residues 1-287 (NTR 1-111 with PAM2w motif 13-26, plus La module 111-287); The NTD was cloned both with a TEV-cleavable His6 tag (pRSFDuet-1) and with a His6-SUMO tag (pET28SUMO, cut by ULP1); also called NTD; LARP4A NTD; source: E. coli Rosetta II, purified (His-Trap, tag cleaved, nickel column, heparin or DEAE); not shown: His6, N-terminal, cleaved
Nature of the test: pull-down; His-SUMO-MLLE (200 ug) as bait mixed with 250 ug untagged LARP4A protein on ice, Ni-NTA agarose, washes in 50 mM Tris pH 7.25, 100 mM KCl, 0.2 mM EDTA, 1 mM DTT, 10 mM imidazole, elution with 500 mM imidazole, Coomassie SDS-PAGE.

The next test has as its target T2, LARP4A NTD L15A (human, UniProt Q71RC2 1-287, L15A).
T2 construct: LARP4A (LARP4), human, residues 1-287, PAM2w single mutant; Generated from the NTD by site-directed mutagenesis; used untagged; source: E. coli Rosetta II, purified (His-Trap, tag cleaved, nickel column, heparin or DEAE); not shown: His6, N-terminal, cleaved
Described as above.

The next test concerns the target T3, LARP4A NTD W22A (human, UniProt Q71RC2 1-287, W22A).
T3 construct: LARP4A (LARP4), human, residues 1-287, PAM2w single mutant; Generated from the NTD by site-directed mutagenesis; used untagged; source: E. coli Rosetta II, purified (His-Trap, tag cleaved, nickel column, heparin or DEAE); not shown: His6, N-terminal, cleaved
The test is described as above.

For the next test, the target named is T4, LARP4A NTD W22F (human, UniProt Q71RC2 1-287, W22F).
T4 construct: LARP4A (LARP4), human, residues 1-287, PAM2w single mutant; Generated from the NTD by site-directed mutagenesis; used untagged; source: E. coli Rosetta II, purified (His-Trap, tag cleaved, nickel column, heparin or DEAE); not shown: His6, N-terminal, cleaved
T4 sequence (Q71RC2 1-287 W22F): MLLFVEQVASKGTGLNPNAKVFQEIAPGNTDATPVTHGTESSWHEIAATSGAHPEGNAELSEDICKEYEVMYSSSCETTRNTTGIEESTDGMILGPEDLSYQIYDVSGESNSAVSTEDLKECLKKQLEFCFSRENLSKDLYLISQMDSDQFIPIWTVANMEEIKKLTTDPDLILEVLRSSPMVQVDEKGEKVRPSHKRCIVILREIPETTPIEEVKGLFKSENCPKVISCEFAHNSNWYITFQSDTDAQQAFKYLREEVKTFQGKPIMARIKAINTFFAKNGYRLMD
The test is described as above.

The target of test [2] is T1, LARP4A (1-287), N-terminal domain. Kind of test: native gel or EMSA; competition EMSA: MLLE 12.5-200 uM titrated into a pre-formed complex of 7.5 uM LARP4A NTD and 2 nM 32P-oligoA15; competition constant KC from the fraction of bound RNA.

T1 sequence (Q71RC2 1-287): as the sequence (Q71RC2 1-287 W22F) above, with F22W counted along it
T2 sequence (Q71RC2 1-287 L15A): as the sequence (Q71RC2 1-287 W22F) above, with L15A, F22W counted along it
T3 sequence (Q71RC2 1-287 W22A): as the sequence (Q71RC2 1-287 W22F) above, with F22A counted along it

B1: His-SUMO-MLLE (PABPC1 MLLE domain 544-626 fused with a His-tagged SUMO tag) (domain or fragment, UniProt P11940 544-626, looked up)
chain: PLTASMLASAPPQEQKQMLGERLFPLIQAMHPTLAGKITGMLLEIDNSELLHMLESPESLRSKVDEAVAVLQAHQAKEAAQKA
notes: Fragment 544-626 inserted into pET28SUMO; the tag was kept and used as the handle for Ni-NTA capture; source: E. coli Rosetta II, purified; not shown: His6-SUMO, N-terminal, kept
Take B1: the binding result (in test [1]; in the test with LARP4A NTD L15A; with LARP4A NTD W22A; with LARP4A NTD W22F) was “binds” each time.

B2: PABPC1 MLLE (544-626) (domain or fragment, UniProt P11940 544-626, looked up)
chain: B1 chain
notes: also called PABP MLLE; MLLE domain; source: E. coli Rosetta II, purified (glutathione agarose, 3C protease, nickel column, SEC); not shown: GST, N-terminal, cleaved
As for B2, in test [2], the binding result is “binds”.
